From patent US9625458
Residue numbers refer to the chain shown, from its start. Names may count otherwise.

B1: dipeptide BP K394C mutant conjugated to NBD (protein, Escherichia coli, not shown: small tags and cut ends)
chain: MKTLVYCSEGSPEGFNPQLFTSGTTYDASSVPLYNRLVEFKIGTTEVIPGLAEKWEVSEDGKTYTFHLRKGVKWHDNKEFKPTRELNADDVVFSFDRQKNAQNPYHKVSGGSYEYFEGMGLPELISEVKKVDDNTVQFVLTRPEAPFLADLAMDFASILSKEYADAMMKAGTPEKLDLNPIGTGPFQLQQYQKDSRIRYKAFDGYWGTKPQIDTLVFSITPDASVRYAKLQKNECQVMPYPNPADIARMKQDKSINLMEMPGLNVGYLSYNVQKKPLDDVKVRQALTYAVNKDAIIKAVYQGAGVSAKNLIPPTMWGYNDDVQDYTYDPEKAKALLKEAGLEKGFSIDLWAMPVQRPYNPNARRMAEMIQADWAKVGVQAKIVTYEWGEYLKRACDGEHQTVMMGWTGDNGDPDNFFATLFSCAASEQGSNYSKWCYKPFEDLIQPARATDDHNKRVELYKQAQVVMHDQAPALIIAHSTVFEPVRKEVKGYVVDPLGKHHFENVSIE
modifications: NBD fluorophore (N,N'-dimethyl-N-(iodoacetyl)-N'-(7-nitrobenz-2-oxa-1,3-diazol-4-yl)ethylenediamide) conjugated to the thiol of Cys 394
B2: dipeptide BP W315C-JPW4045 conjugate (receptor, E. coli, not shown: small tags and cut ends)
chain: B1 chain with W316C, C395K
modifications: JPW4045 fluorophore conjugated to the thiol of Cys 315
B3: dipeptide BP W315C-Acrylodan conjugate (receptor, E. coli, not shown: small tags and cut ends)
chain: B1 chain with W316C, C395K
modifications: acrylodan fluorophore conjugated to the thiol of Cys 315
B4: dipeptide BP W315C-NBD conjugate (receptor, E. coli, not shown: small tags and cut ends)
chain: B1 chain with W316C, C395K
modifications: NBD fluorophore conjugated to the thiol of Cys 315
B5: dipeptide BP T44C conjugated to NBD (receptor, E. coli, not shown: small tags and cut ends)
chain: B1 chain with T45C, C395K
modifications: NBD (N,N'-dimethyl-N-(iodoacetyl)-N'-(7-nitrobenz-2-oxa-1,3-diazol-4-yl)ethylenediamide) conjugated to the thiol of Cys 44
B6: dipeptide BP K394C conjugated to fluorescein (receptor, E. coli, not shown: small tags and cut ends)
chain: B1 chain
modifications: fluorescein (5-iodoacetamidofluorescein) conjugated to the thiol of Cys 394
B7: dipeptide BP D450C-JPW4042 conjugate (receptor, E. coli, not shown: small tags and cut ends)
chain: B1 chain with C395K, D451C
modifications: JPW4042 fluorophore conjugated to the thiol of Cys 450
B8: dipeptide BP D450C-JPW4045 conjugate (receptor, E. coli, not shown: small tags and cut ends)
chain: B1 chain with C395K, D451C
modifications: JPW4045 fluorophore conjugated to the thiol of Cys 450
B9: dipeptide BP D450C-Acrylodan conjugate (receptor, E. coli, not shown: small tags and cut ends)
chain: B1 chain with C395K, D451C
modifications: acrylodan fluorophore conjugated to the thiol of Cys 450
B10: dipeptide BP K394C-JPW4039 conjugate (receptor, E. coli, not shown: small tags and cut ends)
chain: B1 chain
modifications: JPW4039 fluorophore conjugated to the thiol of Cys 394
B11: dipeptide BP K394C-JPW4042 conjugate (receptor, E. coli, not shown: small tags and cut ends)
chain: B1 chain
modifications: JPW4042 fluorophore conjugated to the thiol of Cys 394
B12: dipeptide BP K394C-Acrylodan conjugate (receptor, E. coli, not shown: small tags and cut ends)
chain: B1 chain
modifications: acrylodan fluorophore conjugated to the thiol of Cys 394
B13: dipeptide BP K394C-Fluorescein conjugate (receptor, E. coli, not shown: small tags and cut ends)
chain: B1 chain
modifications: fluorescein (5-iodoacetamidofluorescein) conjugated to the thiol of Cys 394

What was measured:
Gly-Leu dipeptide [1] = assay: fluorimetric titration of the fluorophore conjugate with ligand, fit to a binding isotherm
Gly-Leu dipeptide [2] = assay: fluorimetric titration of the fluorophore conjugate with ligand, fit to binding isotherm
Gly-Leu dipeptide [3] = assay: fluorimetric titration of the fluorophore conjugate with ligand; low end of the range over 21 conjugates
Gly-Leu dipeptide [4] = assay: fluorimetric titration of the fluorophore conjugate with ligand; high end of the range over 21 conjugates

Binder | Kd (Gly-Leu dipeptide [2]) [µM] | further results
B1 |  | Kd (Gly-Leu dipeptide [1]): 0.006 µM
B2 | 3.2 | 
B3 | 0.13 | 
B4 | 0.06 | 
B5 |  | Kd (Gly-Leu dipeptide [3]): 0.006 µM
B6 |  | Kd (Gly-Leu dipeptide [4]): 93 µM
B7 | 1.5 | 
B8 | 2 | 
B9 | 11 | 
B10 | 30 | 
B11 | 78 | 
B12 | 23 | 
B13 | 93 | 
